The values below come from patent US20060252716A1, “Method for reversing the immunosuppressive effects of the melanoma inhibitory activity "mia"” (priority 2000, published 2006).

Data set [1] relates to MIA. In words: Inhibition of MIA expression by antisense sequences. It is filed as cell-based, human.
Data set [2] deals with cells. Particulars: cited from earlier work.
Data set [3] has as its system Peripheral Blood Mononuclear Cells (PBMCs). As to conditions: addition of MIA; cited from earlier work.
Data set [4] relates to malignant melanoma cell. Particulars: cited from earlier work.
Data set [5] relates to LAK cytotoxicity against malignant glioma cell lines (HTZ-17, -243, -374, -375). Put plainly: CARE-LASS calcein-release assay, effector cells pretreated with MIA. The class given is cell-based. The text has this: To study the effects of MIA upon cytotoxic T-lymphocytes (CTL) and Lymphokine Activated Killer cells (LAK cells) a CARE-LASS assay has been employed (Lichtenfels, R., Biddison, W. E., Schulz, H., Vogt, A. B. and R. Martin. CARE-LASS (calcein-release assay), an improved fluorescence based test system to measure cytotoxic lymphocyte activity J. Immunol. Meth., 172: 227-239, 1994). Briefly, glioma cells were harvested, washed in 5% FCS/PBS solution and resuspended at 10 Mio cells/ml in 5% FCS/FBS. Calcein-AM was added to a final concentration of 25 μM (Molecular Probes, USA). The cells were labeled for 30 min at 37° C. then washed twice in 5%/FCS/PBS, adjusted to 1 Mio cells/ml and loaded into 96-well U-shaped microtiter plates at the final concentration of 0.1 Mio/100 μL/1 well (Nunc, Denmark). To measure cytotoxic activity of effector cells pretreated with MIA (f.c. 500 ng/ml), wells were loaded with 100 μL of CTL and LAK cells to produce the desired E:T ratios of […]. […] After incubating the plate for 4 h at 37° C. the supernatants (50 μL) were transferred into new wells and measured using an automated fluorescence scanner (Titertek Fluoroskan II, Germany). The percent cytotoxicity was determined from the following equation: [formula]

In data set [6] the test system is human MIA-secreting melanoma as well as breast cancer cell lines. Put plainly: Tumor invasion and metastasis in scid-mice and nude mice. It is filed as in vivo. Particulars: transfecting vector expressing the antisense sequence. The text has this:
Inhibition of endogenous MIA synthesis by a transfecting vector expressing the antisense sequence (SEQ. ID No 9): […]

For “MIA-2841-W: MIA antisense sequence GTC AGG AAT CGG GAG”, the “inhibiting MIA expression” value in data set [1] is given as “Active”. Take “MIA-1278-W: MIA antisense sequence CTT GGA GAA GAG ATA C”: the “inhibiting MIA expression” value in data set [1] is recorded as “Active”. With “MIA-0202-N: MIA antisense sequence ATG GTG AGG AAT CG”, the “inhibiting MIA expression” value in data set [1] was “Less active or inactive”. In the case of “MIA-1277-N: MIA antisense sequence GAA TGG TCA GGA ATG G”, in data set [1], the “inhibiting MIA expression” value is “Less active or inactive”. On the same count and under the same terms, under “MIA-2842-W: MIA antisense sequence TGC CTC CCC AGA AG (antisense TGCCTCCCCAGAAG; all phosphorothioate, sugars by position and methylation of C not given here; listed as Homo sapiens)” stands “Active”.

B1: MIA: polypeptide Melanoma Inhibitory Activity; 131-amino acid precursor processed into a mature 107-amino acid protein (protein, UniProt Q16674 25-131, looked up)
Melanoma-derived growth …: GPMPKLADRKLCADQECSHPISMAVALQDYMAPDCRFLTIHRGQVVYVFSKLKGRGRLFWGGSVQGDYYGDLAARLGYFPSSIVREDQTLKPGKVDVKTDKWDFYCQ
As for B1, in data set [2], the “inhibits cell proliferation (cell cycle effect)” value is “prolonging of the S-Phase and arrest of the cells in the G2 compartment”. The “IL-2-stimulated PBMC proliferation” value in data set [3] is on record as “only slightly inhibited”. For the same molecule, the “tumor cell growth inhibition” value in data set [4] is on record as “potent tumor cell growth inhibitor”. Besides, the “inhibition of autologous and allogenic LAK cytotoxicity compared to controls” value in data set [5] (MIA f.c. 500 ng/ml, E:T ratios 1:10 and 1:100, 4 h) is listed as “up to 40%”. Further, the “Allogenic anti-glioma LAK immune response” value in data set [5] (exogenous addition of MIA) is “strongly inhibited”.

B2: SEQ. ID No 9: long MIA antisense sequence, or parts of it, expressed from a transfecting vector (nucleic acid, listed as Homo sapiens)
antisense: GGCAGGGCCAGCGGTAGGCTGAGCTCACTGGCAGTAGAAATCCCATTTGTCTGTCTTCACATCGACTTTGCCAGGTTTCAGGGTCTGGTCCTCTCGGACAATGCTACTGGGGAAATAGCCCAGGCGAGCAGCCAGATCTCCATAGTAATCTCCCTGAACGCTGCCTCCCCAGAAGAGCCGCCCACGGCCCTTCAGCTTGGAGAAGACATACACCACTTGGCCCCGGTGAATGGTCAGGAATCGGCAGTCGGGGGCCATGTAGTCCTGAAGGGCCACAGCCATGGAGATAGGGTGGCTGCACTCCTGGTCCGCACACAGCTTCCGGTCAGCCAGCTTGGGCATAGGACCACCCCTGACACCAGGTCCGGAGAAGGCAGACAGCAAGATGATGACACCAAGGCACACCAGGGACCGGGCCATCGTGGACTGTGAGCAAGAGAGTGAGCAAGGGGGTGCTGG
modifications: expressed from transfecting vector
Consider B2, for which, in data set [6], the “tumor invasion and metastasis” value is listed as “strongly reduced”.
